Reference: US20140087995A1 (published 2014)
Numbered stars: 1 amine (or outer) side, 2 acyl side, 3 side chain; on linkers, the order of the positions; unused ones are H or OH. Bridge positions count the residues as written; N and C are the ends. Side chains are listed from the residue outwards. Ends that are not written are not given here. * marks the point of attachment. C20 diacid = O=C(O)CCCCCCCCCCCCCCCCCCC(=O)*; γGlu = O=C(O)[C@H](CCC(=O)[*:2])N[*:1]; AEEA = NCCOCCOCC(=O)O

T1: rat calcitonin receptor (rat, UniProt P32214 25-516)
T1 construct: whole, on cells; Used as membranes prepared from the transfected cells; also called rCTR; rCT
T1 sequence (looked up): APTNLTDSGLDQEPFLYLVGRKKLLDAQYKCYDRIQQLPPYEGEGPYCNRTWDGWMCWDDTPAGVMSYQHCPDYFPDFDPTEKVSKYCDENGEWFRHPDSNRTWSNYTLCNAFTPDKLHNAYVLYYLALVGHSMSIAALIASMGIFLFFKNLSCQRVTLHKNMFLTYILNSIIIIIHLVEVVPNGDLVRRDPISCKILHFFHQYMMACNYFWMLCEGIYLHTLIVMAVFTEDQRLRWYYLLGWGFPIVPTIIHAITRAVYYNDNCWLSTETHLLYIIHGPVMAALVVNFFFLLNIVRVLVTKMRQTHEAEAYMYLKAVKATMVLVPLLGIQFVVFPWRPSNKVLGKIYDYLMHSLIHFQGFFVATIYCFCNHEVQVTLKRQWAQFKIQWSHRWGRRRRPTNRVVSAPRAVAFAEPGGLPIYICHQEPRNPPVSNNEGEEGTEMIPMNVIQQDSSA

T2: human calcitonin receptor (human, UniProt P30988 25-474)
T2 construct: whole, on cells; Used as membranes prepared from the transfected cells; also called hCTR; hCT
T2 sequence (looked up): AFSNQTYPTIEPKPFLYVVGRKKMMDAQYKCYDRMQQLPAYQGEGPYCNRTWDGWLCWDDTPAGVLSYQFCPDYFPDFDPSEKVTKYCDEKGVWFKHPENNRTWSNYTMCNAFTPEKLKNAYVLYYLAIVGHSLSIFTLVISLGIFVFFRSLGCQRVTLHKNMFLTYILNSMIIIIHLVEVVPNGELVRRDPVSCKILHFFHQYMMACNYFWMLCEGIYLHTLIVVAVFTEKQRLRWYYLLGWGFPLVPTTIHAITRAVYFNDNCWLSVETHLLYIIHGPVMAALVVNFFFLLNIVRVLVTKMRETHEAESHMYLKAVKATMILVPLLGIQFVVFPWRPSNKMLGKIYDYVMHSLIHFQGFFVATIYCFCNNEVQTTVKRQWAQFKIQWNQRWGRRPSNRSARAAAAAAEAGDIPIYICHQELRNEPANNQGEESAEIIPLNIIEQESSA


Legend:
[1] = molecular target: T1, rat calcitonin receptor; experiment: SPA competition with 125I-calcitonin, membranes with rat calcitonin receptor (Assay VIII)
[2] = molecular target: T1, rat calcitonin receptor; experiment: ratio of binding IC50 at rat calcitonin receptor to IC50 at rat amylin receptor (reference)
[3] = molecular target: T2, human calcitonin receptor; experiment: ratio of binding IC50 at human calcitonin receptor to IC50 at human amylin receptor (reference)
Procedure: The resulting pellet was resuspended, homogenized and centrifuged (20.000 rpm, 15 min) in a buffer containing 20 mM Na-HEPES and 0.1 mM EDTA (pH 7.4, buffer 2). The resulting pellet was resuspended in buffer 2 and protein concentration was measured (BCA protein Assay, Pierce). The homogenate was kept cold during the whole procedure. The membranes were kept at −80° C. until use. The assay was performed in a 384 well Optiplate (PerkinElmer) in a total volume of 40 ul. Membranes were mixed with SPA beads. Final concentration of membranes 35 ng/μL final and SPA beads was 0.05 mg/well. Test-compounds were dissolved in DMSO and further diluted in assay buffer (50 mM Hepes, pH 7.4, 1 mM CaCl2, 5 mM MgCl₂, 0.1% OA and 0.02% Tween20). […] The final mixture was incubated with shaking at 400 rpm for 120 min at 25° C. prior to centrifugation (1500 rpm, 10 min). Samples were analyzed on TopCounter™ (Packard). The IC₅₀ was calculated using (one site binding competition analysis) GraphPad Prism5 as a measure of receptor affinity.
Membranes were prepared in the following way; the cells were rinsed with PBS and incubated with Versene for approximately 5 min before harvesting. The cells were flushed with PBS and the cell-suspension was centrifuged for 5 min at 1000 rpm. Cells were homogenized (Ultrathurrax) in a buffer containing 20 mM Na-HEPES and 10 mM EDTA (pH 7.4) and centrifuged at 20.000 rpm for 15 min. The resulting pellet was resuspended, homogenized and centrifuged (20.000 rpm, 15 min) in a buffer containing 20 mM Na-HEPES and 0.1 mM EDTA (pH 7.4, buffer 2). The resulting pellet was resuspended in buffer 2 and protein concentration was measured (BCA protein Assay, Pierce). The homogenate was kept cold during the whole procedure. The membranes were kept at −80° C. until use. Assay was performed in a 384 well Optiplate (PerkinElmer) in a total volume of 40 ul. Membranes were mixed with SPA beads.

| IC50 [1] | Ratio rCT/rAmylin binding [2] | Ratio hCT/hAmylin binding [3] | Binder |
| --- | --- | --- | --- |
| 46.8 nM | 104 | 65.3 | K([AEEA-γGlu-C20 diacid])CNTATCATQRLAHFLRHSSPNFGAIPSSTNVGSNTY-NH2 (disulfide 2-7; N-terminus assumed; SMILES CC[C@H](C)[C@H](NC(=O)[C@H](C)NC(=O)CNC(=O)[C@H](Cc1ccccc1)NC(=O)[C@H](CC(N)=O)NC(=O)[C@@H]1CCCN1C(=O)[C@H](CO)NC(=O)[C@H](CO)NC(=O)[C@H](Cc1c[nH]cn1)NC(=O)[C@H](CCCNC(=N)N)NC(=O)[C@H](CC(C)C)NC(=O)[C@H](Cc1ccccc1)NC(=O)[C@H](Cc1c[nH]cn1)NC(=O)[C@H](C)NC(=O)[C@H](CC(C)C)NC(=O)[C@H](CCCNC(=N)N)NC(=O)[C@H](CCC(N)=O)NC(=O)[C@@H](NC(=O)[C@H](C)NC(=O)[C@@H]1CSSC[C@H](NC(=O)[C@@H](N)CCCCNC(=O)COCCOCCNC(=O)CC[C@H](NC(=O)CCCCCCCCCCCCCCCCCCC(=O)O)C(=O)O)C(=O)N[C@@H](CC(N)=O)C(=O)N[C@@H]([C@@H](C)O)C(=O)N[C@@H](C)C(=O)N[C@@H]([C@@H](C)O)C(=O)N1)[C@@H](C)O)C(=O)N1CCC[C@H]1C(=O)N[C@@H](CO)C(=O)N[C@@H](CO)C(=O)N[C@H](C(=O)N[C@@H](CC(N)=O)C(=O)N[C@H](C(=O)NCC(=O)N[C@@H](CO)C(=O)N[C@@H](CC(N)=O)C(=O)N[C@H](C(=O)N[C@@H](Cc1ccc(O)cc1)C(N)=O)[C@@H](C)O)C(C)C)[C@@H](C)O, Analogue of human amylin; disulfide and C-terminal amide as told for h-amylin; also called compound 69) |
| 29.4 nM | 76.3 | 101 | K([AEEA-C20 diacid])CNTATCATQRLANFLRHSSPNFGAIPSSTNVGHNTY-NH2 (disulfide 2-7; N-terminus assumed; SMILES CC[C@H](C)[C@H](NC(=O)[C@H](C)NC(=O)CNC(=O)[C@H](Cc1ccccc1)NC(=O)[C@H](CC(N)=O)NC(=O)[C@@H]1CCCN1C(=O)[C@H](CO)NC(=O)[C@H](CO)NC(=O)[C@H](Cc1c[nH]cn1)NC(=O)[C@H](CCCNC(=N)N)NC(=O)[C@H](CC(C)C)NC(=O)[C@H](Cc1ccccc1)NC(=O)[C@H](CC(N)=O)NC(=O)[C@H](C)NC(=O)[C@H](CC(C)C)NC(=O)[C@H](CCCNC(=N)N)NC(=O)[C@H](CCC(N)=O)NC(=O)[C@@H](NC(=O)[C@H](C)NC(=O)[C@@H]1CSSC[C@H](NC(=O)[C@@H](N)CCCCNC(=O)COCCOCCNC(=O)CCCCCCCCCCCCCCCCCCC(=O)O)C(=O)N[C@@H](CC(N)=O)C(=O)N[C@@H]([C@@H](C)O)C(=O)N[C@@H](C)C(=O)N[C@@H]([C@@H](C)O)C(=O)N1)[C@@H](C)O)C(=O)N1CCC[C@H]1C(=O)N[C@@H](CO)C(=O)N[C@@H](CO)C(=O)N[C@H](C(=O)N[C@@H](CC(N)=O)C(=O)N[C@H](C(=O)NCC(=O)N[C@@H](Cc1c[nH]cn1)C(=O)N[C@@H](CC(N)=O)C(=O)N[C@H](C(=O)N[C@@H](Cc1ccc(O)cc1)C(N)=O)[C@@H](C)O)C(C)C)[C@@H](C)O, Analogue of human amylin; disulfide and C-terminal amide as told for h-amylin; also called compound 91) [N^ε1-[2-[2-[2-(19-carboxynonadecanoylamino)ethoxy]ethoxy]acetyl]-[Arg17,Pro21,Pro27,His34]-h-amylin] |
